Reference: US20140256786
Read-outs that look alike come from different tables or passages of the source.

How the values were obtained:
[1] = test system: GST-dMiroΔTM fusion protein (amino acids 1-634 of the full-length dMiro protein, transmembrane domain deleted) [GST: P08515]
[2] = target: GST-dMiroΔTM fusion protein (amino acids 1-634 of the full-length dMiro protein, transmembrane domain deleted) [GST: P08515]; remark: listed apart in the source

## mammalian PINK1 protein affinity purified from HEK293 cells by immunoprecipitation
[1]
  in vitro kinase assay: also failed to phosphorylate GST-dMiroΔTM in these assays

B1: Drosophila PINK1 protein affinity purified from HEK293 cells by immunoprecipitation (protein)
chain: MSVRLLTVRLIKHGRYILRSYCKRDIHANILDQNQLKTRSKRGFPLPSTAANVLRTTPQQAAKSVVNVVPRTINSPSGSPFNGSGSSPTSSSGIFRVGQHARKLFIDNILSRVTTTYSEDLRQRATRKLFFGDSAPFFALIGVSLASGSGVLSKEDELEGVCWEIREAASRLQNAWNHDEISDTLDSKFTIDDLEIGPPIAKGCAAVVYAADFKKDVASDGASLHTDAQPQATPAFAPNSWSTHEMMSPLQNMSRFVHNFGGSVDNVFHYSQPSAASDFVGAQSREQDQRHHEQQQHQNQEQEQHQNQEPSSSAFNVTSPANSNINSSVDSYPLALKMMFNYDIQSNALSILRAMYKETVPARQRGMNEAADEWERLLQNQTVHLPRHPNIVCMFGFFCDEVRNFPDGHLLYPVAQPQRINPQGYGRNMSLYLLMKRYDHSLRGLLDSQDLSTRNRILLLAQMLEAVNHLSRHGVAHRDLKSDNVLIELQDDAAPVLVLSDFGCCLADKVHGLRLPYVSHDVDKGGNAALMAPEIFNTMPGPFAVLNYGKADLWACGALAYEIFGNRNPFYSSSGGMARERGEMTLSLRNSDYRQDQLPPMSDACPPLLQQLVYNILNPNPSKRVSPDIAANVVQLFLWAPSNWLKAGGMPNSPEILQWLLSLTTKIMCEGRPQMGAGLMPVASCGNRRAYVEYLLICSFLARARLRRIRGALNWIQNVVA
[2]
  in vitro kinase assay: also failed to phosphorylate GST-dMiroΔTM in these assays

B2: 2xGST-dPINK1 fusion protein with GST fused at both the N- and C-terminus of dPINK1 (protein)
chain: KEDELEGVCWEIREAASRLQNAWNHDEISDTLDSKFTIDDLEIGPPIAKGCAAVVYAADFKKDVASDGASLHTDAQPQATPAFAPNSWSTHEMMSPLQNMSRFVHNFGGSVDNVFHYSQPSAASDFVGAQSREQDQRHHEQQQHQNQEQEQHQNQEPSSSAFNVTSPANSNINSSVDSYPLALKMMFNYDIQSNALSILRAMYKETVPARQRGMNEAADEWERLLQNQTVHLPRHPNIVCMFGFFCDEVRNFPDGHLLYPVAQPQRINPQGYGRNMSLYLLMKRYDHSLRGLLDSQDLSTRNRILLLAQMLEAVNHLSRHGVAHRDLKSDNVLIELQDDAAPVLVLSDFGCCLADKVHGLRLPYVSHDVDKGGNAALMAPEIFNTMPGPFAVLNYGKADLWACGALAYEIFGNRNPFYSSSGGMARERGEMTLSLRNSDYRQDQLPPMSDACPPLLQQLVYNILNPNPSKRVSPDIAANVVQLFLWAPSNWLKAGGMPNSPEILQWLLSLTTKIMCEGRPQMGAGLMPVASCGNRRAYVEYLLICSFLARARLRRIRGALNWIQNVVA
[2]
  in vitro kinase assay (P32 autoradiography): failed to show phosphorylation of GST-dMiroΔTM
